For experiment [1], the target named is CD95-His (Sino Biological) (UniProt P25445). Nature of the experiment: ELISA; CD95-His coated at 2 µg/ml in PBS overnight at 4 °C; biotin-IZ-CD95L or FLAG-CD95L 0.1 nM to 100 nM in 0.5% BSA/PBST, 2 h at r.t.; detected with anti-CD95L antibody and HRP secondary; 4-parameter logistic fit.
A further experiment deals with biotin-IZ-CD95L (human). As to the kind of experiment: SEC; Superdex 75 10/300 GL (Fig. 3A) or ENrich SEC 70 10 x 300 (Fig. 3B, C); PBS pH 7.4, 0.3 ml/min; sizes from a standard curve of protein standards; peak shares from Gaussian fits.
Experiment [2] addresses CD95-His (Sino Biological) (UniProt P25445).
For experiment [3], the target named is IZ-CD95L (after His-tag cleavage with TEV protease) (human). Nature of the experiment: SEC; Superdex 75 10/300 GL (Fig. 3A) or ENrich SEC 70 10 x 300 (Fig. 3B, C); PBS pH 7.4, 0.3 ml/min; sizes from a standard curve of protein standards; peak shares from Gaussian fits.

pKd: −log10 of the molar value. Values joined by “and” are separate entries in the source; they are usually repeats but may differ in a detail not shown here. Identical values can stand only once.

Sequence of CD95-His (Sino Biological) (P25445 26-173): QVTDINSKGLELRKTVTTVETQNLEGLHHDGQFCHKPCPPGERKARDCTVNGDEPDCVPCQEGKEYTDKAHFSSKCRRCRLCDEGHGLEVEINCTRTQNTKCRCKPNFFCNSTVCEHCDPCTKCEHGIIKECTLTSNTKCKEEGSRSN

As to biotin-IZ-CD95L (ligand), the pKd in experiment [1] is 9.17. Also, in the experiment with biotin-IZ-CD95L (human), the percent of the protein in the trimer peak (Peak B, Gaussian fit) was determined as 48%; the stoichiometry N was 3 and 2. The same substance returned a Max (%) of apoptotic Hela WT cells (endogenous CD95), apoptosis dynamics assay, 1000 ng/ml ligand in experiment [2] of 75.7%.
With “IZ-CD95L (after His-tag cleavage with TEV protease) (ligand)”, in experiment [3], the percent of the protein in the trimer peak (Peak B, Gaussian fit) turned out to be 55%; the stoichiometry N is 3 and 2. In addition, the Max (%) of apoptotic Hela WT cells (endogenous CD95), apoptosis dynamics assay, 1000 ng/ml ligand in experiment [2] was 72.9%.

The values are drawn from article PMC12219679.
